By EC50 (read off the curve) is commonly meant the concentration at which the effect is half-maximal. As a reminder, the EC50 is the concentration giving half of the maximal effect. The term kon denotes the second-order rate constant of association. For orientation: koff means the rate constant with which the complex falls apart.

These results are taken from patent publication US20200079855A1 (Pfizer, published 2020).

The target of experiment [1] is T1, human αvβ8 integrin on U251 cells (human, UniProt P06756 31-1048). Nature of the experiment: cell-based or functional assay.
The target of experiment [2] is T2, recombinant human αvβ3 integrin (human, UniProt P06756 31-992; P05106 27-718).
T2 construct: Used in ELISA and immobilised on the Biacore chip; construct not described; also called hαvβ3; AVB3
Description: ELISA (title Specificity Binding ELISA), absorbance 450 nm against [mAb] (nM). In general terms: An ELISA detects its analyte on a solid surface through an enzyme-linked reagent.

For experiment [3], the target named is T3, recombinant human αvβ6 integrin (human, UniProt P06756 31-992; P18564 22-707).
T3 construct: Used in ELISA and immobilised on the Biacore chip; construct not described; also called hαvβ6; AVB6
Described as above.

Experiment [4] concerns the target recombinant human αvβ8 integrin (human) (UniProt P06756). Description: ELISA on human αvβ8 (legend box: human avb8), mAb titration.
For experiment [5], the target named is T1, human αvβ8 integrin on U251 cells. Description: apparent KD, flow cytometry on U251 cells.
For experiment [6] the target is unchanged. Description: flow cytometry, IgG binding to U251 cells (ΔMFI, background subtracted); EC50 unit inferred, axis Log10 [Ab] (nM); Table 7 of the text gives the rounded value as U251 app KD 823 pM. On the technique in general: A flow cytometer gives signals particle by particle.
Experiment [7] has as its target recombinant human αvβ8 integrin (human) (UniProt P06756). Nature of the experiment: SPR (Biacore), Fab affinity of Table 3. (SPR reads the build-up and loss of mass on a sensor chip optically.)
The target is the same in experiment [8]. Description: SPR (Biacore T200), Fab over biotinylated recombinant αvβ8 on streptavidin chip, n>=3.
Experiment [9] deals with T1, human αvβ8 integrin on U251 cells. Nature of the experiment: cell-based or functional assay. This is another data set of the same source.
The target of experiment [10] is T2, recombinant human αvβ3 integrin. Nature of the experiment: SPR (Biacore).
Experiment [11] addresses T3, recombinant human αvβ6 integrin. Nature of the experiment: SPR (Biacore).
In experiment [12] the target is recombinant human αvβ8 integrin (human) (UniProt P06756). Description: SPR (Biacore), Fab over immobilised recombinant αvβ8; the upper end is the human value of Tables 3 and 6.
Experiment [13] addresses T4, recombinant mouse αvβ8 integrin (mouse, UniProt P43406 31-988; Q0VBD0 22-681, limits assumed).
T4 construct: Recombinant protein immobilised on the Biacore chip
Nature of the experiment: SPR (Biacore T200), Fab over biotinylated recombinant αvβ8 on streptavidin chip, n>=3. The procedure:
(§1) More specifically, recombinant αvβ8 integrin (e.g., R&D Systems) was biotin labeled via primary amines and immobilized on a Sensor Chip SA using a Biacore™ T200 instrument (GE Healthcare Life Sciences). Fab binding experiments were performed at 25° C. using a 30 μl/min flow rate in 0.01 M HEPES pH 7.4, 0.15 M NaCl, 1-2 mM MgCl₂, and 0.005% v/v surfactant P20 (HBS-P) buffer. Association was monitored for 5-10 minutes and dissociation for a further 15-20 minutes for each Fab concentration. After each injection, the chip surface was regenerated with IgG elution buffer (Thermo Fisher Scientific). All data was analyzed using the Biacore™ T200 Evaluation software. Data was dual background subtracted using the adjacent flow cell coupled with streptavidin without captured integrin, and buffer only injections. Kinetic constants for at least three experiments were obtained and reported as the mean.
(§2) To evaluate the monomeric KD of the Fab ADWA11 2.4, also referred to herein as ADWA-11 VH05-2/VK01(2.4) and ADWA11 5-2 2.4, and the parental mouse IgG, recombinant human, cynomolgus, mouse, and rat αvβ8 was immobilized on a Biacore chip and the ka and kd of the Fabs were determined as generally described herein (Table 6).

Experiment [14] deals with T5, recombinant cynomolgus monkey αvβ8 integrin (cynomolgus monkey, limits assumed).
T5 construct: Recombinant protein immobilised on the Biacore chip; also called cyno αvβ8; cynomolgus αvβ8
T5 chain 1: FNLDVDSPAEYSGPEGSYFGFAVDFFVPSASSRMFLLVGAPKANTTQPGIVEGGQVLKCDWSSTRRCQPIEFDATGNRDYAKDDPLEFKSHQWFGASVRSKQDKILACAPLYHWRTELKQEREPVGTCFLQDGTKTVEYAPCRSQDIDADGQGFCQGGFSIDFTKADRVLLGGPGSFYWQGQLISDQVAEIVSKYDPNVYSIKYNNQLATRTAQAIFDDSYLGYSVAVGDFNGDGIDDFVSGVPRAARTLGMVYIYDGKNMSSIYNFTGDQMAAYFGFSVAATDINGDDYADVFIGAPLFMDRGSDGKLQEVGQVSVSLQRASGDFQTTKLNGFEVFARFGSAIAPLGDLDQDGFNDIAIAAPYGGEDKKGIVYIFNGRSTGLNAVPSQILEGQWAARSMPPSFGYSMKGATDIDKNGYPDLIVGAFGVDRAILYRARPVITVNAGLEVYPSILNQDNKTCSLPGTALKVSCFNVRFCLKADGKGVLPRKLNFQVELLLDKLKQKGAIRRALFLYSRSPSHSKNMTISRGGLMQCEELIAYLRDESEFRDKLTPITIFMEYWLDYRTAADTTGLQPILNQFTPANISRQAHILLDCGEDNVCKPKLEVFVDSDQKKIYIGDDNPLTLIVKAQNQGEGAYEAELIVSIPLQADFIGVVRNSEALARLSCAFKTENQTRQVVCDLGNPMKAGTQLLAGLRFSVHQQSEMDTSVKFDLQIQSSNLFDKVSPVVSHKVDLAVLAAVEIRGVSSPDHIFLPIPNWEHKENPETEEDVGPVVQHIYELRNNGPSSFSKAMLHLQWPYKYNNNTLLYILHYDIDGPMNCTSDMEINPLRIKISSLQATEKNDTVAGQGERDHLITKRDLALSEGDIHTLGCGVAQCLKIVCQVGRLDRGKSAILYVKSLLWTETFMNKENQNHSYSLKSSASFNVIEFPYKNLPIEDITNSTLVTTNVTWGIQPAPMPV
T5 chain 2: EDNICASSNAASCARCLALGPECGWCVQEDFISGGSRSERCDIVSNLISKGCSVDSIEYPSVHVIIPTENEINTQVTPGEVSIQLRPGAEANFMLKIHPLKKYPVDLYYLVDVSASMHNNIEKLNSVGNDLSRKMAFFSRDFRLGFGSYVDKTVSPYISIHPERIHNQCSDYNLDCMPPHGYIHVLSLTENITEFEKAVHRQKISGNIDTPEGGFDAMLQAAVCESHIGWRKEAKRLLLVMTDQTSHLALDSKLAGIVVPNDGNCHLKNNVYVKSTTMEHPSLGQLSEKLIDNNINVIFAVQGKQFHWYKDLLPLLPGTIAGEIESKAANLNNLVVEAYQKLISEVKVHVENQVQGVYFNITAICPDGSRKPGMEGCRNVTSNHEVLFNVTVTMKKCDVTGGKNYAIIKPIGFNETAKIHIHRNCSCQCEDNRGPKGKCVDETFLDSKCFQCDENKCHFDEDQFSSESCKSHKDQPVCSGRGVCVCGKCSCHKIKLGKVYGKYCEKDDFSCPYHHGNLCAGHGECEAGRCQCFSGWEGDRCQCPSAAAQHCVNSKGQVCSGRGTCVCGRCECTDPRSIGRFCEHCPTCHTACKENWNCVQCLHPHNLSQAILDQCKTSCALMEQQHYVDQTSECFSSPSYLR
Described as above. As to the method:
as §1, §2

Experiment [15] concerns the target T1, human αvβ8 integrin on U251 cells. Nature of the experiment: flow cytometry, IgG binding to U251 cells (ΔMFI, background subtracted); EC50 unit inferred, axis Log10 [Ab] (nM); Table 7 of the text gives U251 app KD 430 pM.
The target of experiment [16] is recombinant human αvβ8 integrin (human) (UniProt P06756). Description: ELISA (DELFIA counts) on human αvβ8, Fab titration; identity of the molecule see the row before.
Experiment [17] addresses T6, recombinant rat αvβ8 integrin (rat, UniProt F1LZX9 31-987; A0A0G2JVU1 43-682).
T6 construct: Recombinant protein immobilised on the Biacore chip
Nature of the experiment: SPR (Biacore T200), Fab over biotinylated recombinant αvβ8 on streptavidin chip, n>=3. The procedure: as §1, §2

The target of experiment [18] is recombinant human αvβ8 integrin (human) (UniProt P06756). Description: ELISA (DELFIA counts) on human αvβ8, Fab titration.
Target sequence in this assay (P06756 31-992 limits assumed, form in doubt, chain 1 of 2): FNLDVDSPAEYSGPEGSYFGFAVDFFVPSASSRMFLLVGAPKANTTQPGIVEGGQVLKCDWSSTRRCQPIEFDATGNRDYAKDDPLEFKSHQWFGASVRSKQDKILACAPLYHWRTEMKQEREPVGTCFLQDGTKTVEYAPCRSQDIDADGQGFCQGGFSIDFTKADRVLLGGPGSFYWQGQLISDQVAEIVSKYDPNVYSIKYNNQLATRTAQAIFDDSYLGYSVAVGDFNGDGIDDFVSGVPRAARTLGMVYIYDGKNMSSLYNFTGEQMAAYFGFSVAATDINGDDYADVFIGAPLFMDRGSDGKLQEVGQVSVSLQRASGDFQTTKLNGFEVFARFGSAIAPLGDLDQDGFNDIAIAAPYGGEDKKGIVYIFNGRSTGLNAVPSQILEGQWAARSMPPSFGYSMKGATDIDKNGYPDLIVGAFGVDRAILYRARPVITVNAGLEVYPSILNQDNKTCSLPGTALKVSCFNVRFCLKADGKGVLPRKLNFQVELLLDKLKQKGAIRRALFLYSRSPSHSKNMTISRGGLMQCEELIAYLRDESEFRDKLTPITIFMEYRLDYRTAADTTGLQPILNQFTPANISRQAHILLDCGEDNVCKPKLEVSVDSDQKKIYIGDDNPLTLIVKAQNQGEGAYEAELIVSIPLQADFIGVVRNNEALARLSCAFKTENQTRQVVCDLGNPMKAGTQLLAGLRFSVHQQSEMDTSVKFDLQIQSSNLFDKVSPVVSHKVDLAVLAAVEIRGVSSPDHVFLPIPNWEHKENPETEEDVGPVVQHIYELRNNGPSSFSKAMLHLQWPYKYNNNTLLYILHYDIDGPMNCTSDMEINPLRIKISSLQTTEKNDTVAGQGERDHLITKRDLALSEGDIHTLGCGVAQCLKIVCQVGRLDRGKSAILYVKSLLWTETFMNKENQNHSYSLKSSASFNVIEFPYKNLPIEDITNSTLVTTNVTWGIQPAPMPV
Target sequence in this assay (chain, as listed by the source limits assumed, form in doubt, chain 2 of 2): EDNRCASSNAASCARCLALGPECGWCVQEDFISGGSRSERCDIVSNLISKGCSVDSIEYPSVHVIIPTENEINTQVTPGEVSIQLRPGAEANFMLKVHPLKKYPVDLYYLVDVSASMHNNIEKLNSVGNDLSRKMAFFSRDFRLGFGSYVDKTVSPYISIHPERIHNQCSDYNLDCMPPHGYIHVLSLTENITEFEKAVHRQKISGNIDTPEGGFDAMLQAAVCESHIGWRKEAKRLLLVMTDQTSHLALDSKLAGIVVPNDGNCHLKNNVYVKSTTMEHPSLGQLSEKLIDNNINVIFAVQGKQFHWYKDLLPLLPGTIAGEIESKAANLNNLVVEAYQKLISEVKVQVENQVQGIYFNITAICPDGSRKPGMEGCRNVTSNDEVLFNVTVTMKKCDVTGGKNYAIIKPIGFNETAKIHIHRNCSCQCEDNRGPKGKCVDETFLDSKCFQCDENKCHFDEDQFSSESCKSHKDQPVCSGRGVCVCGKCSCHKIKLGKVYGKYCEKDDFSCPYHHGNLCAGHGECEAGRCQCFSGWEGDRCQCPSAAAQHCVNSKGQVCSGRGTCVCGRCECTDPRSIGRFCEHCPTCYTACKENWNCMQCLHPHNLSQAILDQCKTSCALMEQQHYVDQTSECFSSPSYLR

Values joined by “and” are separate entries in the source; they are usually repeats but may differ in a detail not shown here. Identical values can stand only once. Where only a bound is given, the exact number is not on record here.

T4 sequence (P43406 31-988 limits assumed, chain 1 of 2): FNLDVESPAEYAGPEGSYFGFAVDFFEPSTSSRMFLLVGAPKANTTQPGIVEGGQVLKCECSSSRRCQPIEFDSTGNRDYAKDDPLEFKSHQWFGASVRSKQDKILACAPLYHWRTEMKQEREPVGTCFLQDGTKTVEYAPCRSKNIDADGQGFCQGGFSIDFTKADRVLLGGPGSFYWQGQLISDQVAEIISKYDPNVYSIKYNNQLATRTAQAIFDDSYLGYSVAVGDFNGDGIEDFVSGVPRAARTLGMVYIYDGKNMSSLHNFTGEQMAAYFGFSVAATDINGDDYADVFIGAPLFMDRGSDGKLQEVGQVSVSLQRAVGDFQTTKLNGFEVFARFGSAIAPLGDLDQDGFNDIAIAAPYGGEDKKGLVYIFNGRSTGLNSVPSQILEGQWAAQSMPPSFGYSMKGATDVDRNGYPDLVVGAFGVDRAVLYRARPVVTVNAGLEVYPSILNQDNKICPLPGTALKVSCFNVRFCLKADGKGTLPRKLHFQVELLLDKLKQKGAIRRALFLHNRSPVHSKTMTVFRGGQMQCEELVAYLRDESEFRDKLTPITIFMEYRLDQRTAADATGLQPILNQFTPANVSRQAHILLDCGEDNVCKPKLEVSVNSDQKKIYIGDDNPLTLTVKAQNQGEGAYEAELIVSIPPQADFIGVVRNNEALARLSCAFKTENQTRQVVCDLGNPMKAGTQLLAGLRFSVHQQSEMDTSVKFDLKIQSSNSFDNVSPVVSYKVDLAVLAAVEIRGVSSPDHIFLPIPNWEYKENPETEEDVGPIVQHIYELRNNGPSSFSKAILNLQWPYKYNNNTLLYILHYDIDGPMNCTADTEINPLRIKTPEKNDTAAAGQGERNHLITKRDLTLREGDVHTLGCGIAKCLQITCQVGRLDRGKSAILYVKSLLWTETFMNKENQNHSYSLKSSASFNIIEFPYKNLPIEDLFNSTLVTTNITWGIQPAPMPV
T4 sequence (Q0VBD0 22-681 limits assumed, chain 2 of 2): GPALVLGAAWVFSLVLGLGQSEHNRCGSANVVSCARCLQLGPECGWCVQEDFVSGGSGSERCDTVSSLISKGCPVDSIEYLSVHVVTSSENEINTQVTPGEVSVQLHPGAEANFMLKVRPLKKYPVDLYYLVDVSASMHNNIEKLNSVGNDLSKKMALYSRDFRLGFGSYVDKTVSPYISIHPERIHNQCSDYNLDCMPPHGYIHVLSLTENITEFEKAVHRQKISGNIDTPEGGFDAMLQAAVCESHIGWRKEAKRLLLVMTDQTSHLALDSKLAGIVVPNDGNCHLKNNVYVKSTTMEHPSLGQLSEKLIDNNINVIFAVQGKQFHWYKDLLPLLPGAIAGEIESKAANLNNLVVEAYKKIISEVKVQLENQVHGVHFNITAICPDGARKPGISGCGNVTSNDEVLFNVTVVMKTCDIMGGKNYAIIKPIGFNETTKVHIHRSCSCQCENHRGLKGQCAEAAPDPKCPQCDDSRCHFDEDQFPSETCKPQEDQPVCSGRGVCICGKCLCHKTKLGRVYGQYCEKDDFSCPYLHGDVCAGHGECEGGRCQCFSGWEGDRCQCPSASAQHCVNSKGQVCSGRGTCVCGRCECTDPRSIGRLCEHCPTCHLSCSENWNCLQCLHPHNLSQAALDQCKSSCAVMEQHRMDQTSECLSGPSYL
T2 sequence (P05106 27-718 limits assumed, one chain of several): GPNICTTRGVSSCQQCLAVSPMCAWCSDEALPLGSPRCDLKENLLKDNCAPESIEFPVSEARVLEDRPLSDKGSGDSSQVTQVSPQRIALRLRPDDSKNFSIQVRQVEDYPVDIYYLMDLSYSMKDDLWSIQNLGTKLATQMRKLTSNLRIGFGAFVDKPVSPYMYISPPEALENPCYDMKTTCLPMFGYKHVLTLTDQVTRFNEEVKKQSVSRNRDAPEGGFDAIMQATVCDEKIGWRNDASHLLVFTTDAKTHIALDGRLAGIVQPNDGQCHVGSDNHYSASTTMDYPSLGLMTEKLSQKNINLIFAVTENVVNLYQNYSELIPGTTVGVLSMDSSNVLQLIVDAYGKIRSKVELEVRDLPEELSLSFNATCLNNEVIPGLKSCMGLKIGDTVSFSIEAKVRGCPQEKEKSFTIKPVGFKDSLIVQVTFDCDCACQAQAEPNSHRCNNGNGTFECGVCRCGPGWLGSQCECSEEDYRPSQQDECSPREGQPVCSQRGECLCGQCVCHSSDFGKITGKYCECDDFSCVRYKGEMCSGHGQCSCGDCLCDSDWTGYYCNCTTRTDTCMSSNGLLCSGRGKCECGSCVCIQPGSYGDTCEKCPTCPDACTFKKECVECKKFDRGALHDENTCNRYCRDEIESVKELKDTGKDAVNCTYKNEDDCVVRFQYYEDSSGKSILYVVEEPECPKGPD
T3 sequence (P18564 22-707 limits assumed, one chain of several): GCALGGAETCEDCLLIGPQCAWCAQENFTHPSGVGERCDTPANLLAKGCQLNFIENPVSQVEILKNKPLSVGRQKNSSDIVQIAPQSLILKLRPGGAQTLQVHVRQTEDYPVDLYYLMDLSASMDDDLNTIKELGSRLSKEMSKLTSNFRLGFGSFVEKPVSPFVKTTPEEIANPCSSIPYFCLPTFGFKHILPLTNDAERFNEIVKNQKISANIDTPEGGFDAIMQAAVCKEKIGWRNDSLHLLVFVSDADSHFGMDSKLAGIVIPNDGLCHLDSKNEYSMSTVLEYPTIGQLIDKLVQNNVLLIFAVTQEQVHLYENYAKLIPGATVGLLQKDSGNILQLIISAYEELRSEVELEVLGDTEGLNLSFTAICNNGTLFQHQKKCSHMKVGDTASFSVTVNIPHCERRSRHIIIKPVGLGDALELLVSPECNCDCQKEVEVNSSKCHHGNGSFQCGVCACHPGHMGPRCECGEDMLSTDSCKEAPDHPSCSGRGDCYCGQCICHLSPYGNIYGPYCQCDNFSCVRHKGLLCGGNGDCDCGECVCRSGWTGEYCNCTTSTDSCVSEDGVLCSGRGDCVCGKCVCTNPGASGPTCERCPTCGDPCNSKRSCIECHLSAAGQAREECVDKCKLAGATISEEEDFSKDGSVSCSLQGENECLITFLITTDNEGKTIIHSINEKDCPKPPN

B1: Mouse hybridoma antibody ADWA-11 (antibody, V domains shown)
VH: EVQLQQSGAELVRPGAFVKLSCKASGFNIKDYYMNWVLQRPEQGLEWIGWIDPDNGNTIYDPKFQGKASITADTSSNTAYLQLSSLTSEDTAVYYCARRLLMDYWGQGTSVTVSS
VL: DIVMTQAAPSVPVTPGESVSISCRSTKSLLHFNGNTYLFWFLQRPGQSPQRLIYYMSNLASGVPDRFSGRGSGTDFTLRISRVEAEDVGVYYCMQSLEYPFTFGTGTKLEIK
notes: Whole native murine IgG from the hybridoma; also called mADWA11; mADWA-11
On to B1, for which the IgG Potency TGFB Assay IC50 (pM) in [1] came to 183 pM. The binding result in [2] and in [3] was “no binding (tested: about 500 nM)” each time. Moreover, in [4], the EC50 (read off the curve) came out at 0.3 nM.

B2: ADWA-11_4 mut (antibody, mouse IgG1, V domains shown)
VH: B1 VH
VL: B1 VL
For the molecule B2, in experiment [5], the Kd came to 0.823 nM. For the same molecule, the EC50 in experiment [6] came out at 0.823 nM.

B3: Mouse hybridoma ADWA-11 Fab (Fab, V domains shown)
VH: B1 VH
VL: B1 VL
notes: Fab; also called mFab; Ms ADWA11 Fab
Regarding B3, the Kd was 0.536 nM in [7]; 0.536 nM in [8]; 0.489 to 0.536 nM in experiment [12]; 0.489 nM in experiment [13]; 0.507 nM in [14]. Also, the kon in experiment [7] was determined as 92200 M⁻¹ s⁻¹; in experiment [8], 92200 M⁻¹ s⁻¹; in [13], 103000 M⁻¹ s⁻¹; in experiment [14], 98100 M⁻¹ s⁻¹. For the same molecule, the koff in experiment [8] came out at 4.86e-05 s⁻¹; in experiment [13], 5.03e-05 s⁻¹; in experiment [14], 4.97e-05 s⁻¹. Moreover, the “EC50 value measured by apparent affinity in the TGF-β transactivation assay” value in experiment [9] is 4.6 nM. The binding result in experiment [10] and in experiment [11] was “no binding” in each case.

B4: hIgG_VH05VK01 (antibody, V domains shown)
VH: EVQLVESGGGLVQPGGSLRLSCAASGFNIKDYYMNWVRQAPGKGLEWVGWIDPDNGNTIYDPKFQGRFTISADTSKNSAYLQMNSLRAEDTAVYYCARRLLMDYWGQGTLVTVSS
VL: DIQMTQSPSSLSASVGDRVTITCRSTKSLLHFNGNTYLFWYQQKPGKAPKRLIYYMSNLASGVPSRFSGSGSGTDFTLTISSLQPEDFATYYCMQSLEYPFTFGQGTKVEIKR
B4 yielded an IgG Potency TGFB Assay IC50 (pM) in experiment [1] of 148 pM. The molecule further yielded a concentration for a half-maximal effect (EC50) in experiment [15] of 0.434 nM. In addition, the Kd in experiment [5] is 0.43 nM.

B5: ADWA11 VH05/VK01 Fab (Fab, V domains shown)
VH: B4 VH
VL: DIQMTQSPSSLSASVGDRVTITCRSTKSLLHFNGNTYLFWYQQKPGKAPKRLIYYMSNLASGVPSRFSGSGSGTDFTLTISSLQPEDFATYYCMQSLEYPFTFGQGTKVEIK
notes: Fab; also called VH05-2_VK01 parental
For B5, the Kd in experiment [7] is 0.05 nM and < 0.1 nM; in [8] it was 0.118 nM; in [13], at most 0.1 nM; in [17], 0.16 nM; in [14], at most 0.1 nM. Moreover, the fold lower KD than the mouse hybridoma antibody ADWA-11 in experiment [7] is above 5 fold. Further, the off-rate constant (koff) in experiment [8] was 2.37e-05 s⁻¹; in experiment [13], at most 2e-05 s⁻¹; in experiment [17], 3.1e-05 s⁻¹; in [14] it was at most 2e-05 s⁻¹. The on-rate (kon) was determined as 200000 M⁻¹ s⁻¹ in experiment [8], 220000 M⁻¹ s⁻¹ in experiment [13], 194000 M⁻¹ s⁻¹ in experiment [17] and 225000 M⁻¹ s⁻¹ in [14]. For the same molecule, the “EC50 value measured by apparent affinity in the TGF-β transactivation assay” value in experiment [9] was found to be 1.3 nM. Besides, the EC50 (read off the curve) in experiment [16] and in [18] was 1 nM throughout.
